Columns and labels:
Assay in all cases: p-nitrophenol release, Lineweaver-Burk
Assay type in all cases: biochemical, Pyrobaculum ferrireducens
[1] = substrate: CCCCCCCCCC(=O)Oc1ccc([N+](=O)[O-])cc1; conditions: 50 mM Tris-HCl pH 9.0, 80 °C, substrate tested at 0.1-3 mM only
Source text: (§1) p-nitrophenol release, Lineweaver-Burk on rP186_1588 ([…]_1588)

[2] = substrate: CCCC(=O)Oc1ccc([N+](=O)[O-])cc1; conditions: 50 mM Tris-HCl pH 9.0, 80 °C
Source text: as §1

[3] = substrate: CC(=O)Oc1ccc([N+](=O)[O-])cc1; conditions: 50 mM Tris-HCl pH 9.0, 80 °C
Source text: as §1

[4] = substrate: CCCCCCCC(=O)Oc1ccc([N+](=O)[O-])cc1; conditions: 50 mM Tris-HCl pH 9.0, 80 °C
Source text: as §1

B1: rP186_1588 (P186_1588) (Pyrobaculum ferrireducens) (protein)
chain: MSEKYVAVEGRRVRYLVGGSGRPVVLLHGWSFNADTWVESGVFNSLAGHFAVYAIDMPYGIRTKSERFQAPRREYAVFLRRVLDALDLADPPLVGPSASGEVVLWYVAKRLPTRAAVVVGPVGLAGELLEELRGAGVPILAVWGEGDEVSPPSRASLLRDVAKVVILRDAGHAAYLDKPGEFVEVVLDFLRGVY
notes: full length 194 aa (21,131 Da calculated, ~23 kDa on SDS-PAGE), His-tagged, synthetic gene in pET-28a(+) NdeI/BamHI, E. coli BL21(DE3), Ni-NTA purified, tag removal not mentioned
Km [1]: 4990 ± 210 µM | kcat [1]: 6.19 ± 0.33 s⁻¹ | kcat/Km [1]: 1240 ± 70 M⁻¹ s⁻¹ | Km [2]: 1270 ± 40 µM | kcat [2]: 9.12 ± 0.62 s⁻¹ | kcat/Km [2]: 7180 ± 190 M⁻¹ s⁻¹ | Km [3]: 350 ± 10 µM | kcat [3]: 11.7 ± 0.48 s⁻¹ | kcat/Km [3]: 33300 ± 1370 M⁻¹ s⁻¹ | Km [4]: 2640 ± 140 µM | kcat [4]: 6.36 ± 0.28 s⁻¹ | kcat/Km [4]: 2410 ± 110 M⁻¹ s⁻¹
